Data: US8030048B2, “Enantioselective epoxide hydlrolase and method for preparing and enantiopure epoxide using the same” (Korea Ocean Research and Development Institute, priority 2005, dated 2011)

B1: sEEH: 49 kDa epoxide hydrolase purified from Sphingopyxis alaskensis, SEQ ID NO: 28 (protein, listed as Erythrobacter litoralis)
chain: MSPAKSISLRRLLSTAISVAALGMTLQSSPSFASSAGPSTAITVSAAAAVAAPQDESIRPFHVSIPEEALTDLRRRLAETRWPDREKVSDASQGVQLDRLEPLVRYWGTDYDWRKGEARLNAVPQFITTIDGLDIQFIHIRSKHKGAMPLLMTHGWPGSPFELLKTVGPLTDPTAHGGKAEDAFDLIMPTYPGYGFSGKPNEAWDPARVARAWDVLMKRLGYKNYVSQGGDWGAIISQVLAVQAPEGLLGIHTNMPGTVPPGVLKLVRAKQPAPDSYSPEEKIAYAGLETFYGKGFGYAEMMNTRPQTLGYGLSDSPVGLAAFLYEKIATWTDSGGNPESVLTRDEILDNITLYWLTNTGTSSSRSYWDAAQGPGGPFNAIEISKVPVAVTVFPGEIYRAPRSWGEKSFKKLIYWNEVDKGGHFAAWEQPELFAAEIRAAFRPLREKK
B2: Sphingopyxis alaskensis epoxide hydrolase sEEH (Sp), SEQ ID NO: 28 (Sphingopyxis alaskensis RB2256) (protein)
chain: SSAGPSTAITVSAAAAVAAPQDESIRPFHVSIPEEALTDLRRRLAETRWPDREKVSDASQGVQLDRLEPLVRYWGTDYDWRKGEARLNAVPQFITTIDGLDIQFIHIRSKHKGAMPLLMTHGWPGSPFELLKTVGPLTDPTAHGGKAEDAFDLIMPTYPGYGFSGKPNEAWDPARVARAWDVLMKRLGYKNYVSQGGDWGAIISQVLAVQAPEGLLGIHTNMPGTVPPGVLKLVRAKQPAPDSYSPEEKIAYAGLETFYGKGFGYAEMMNTRPQTLGYGLSDSPVGLAAFLYEKIATWTDSGGNPESVLTRDEILDNITLYWLTNTGTSSSRSYWDAAQGPGGPFNAIEISKVPVAVTVFPGEIYRAPRSWGEKSFKKLIYWNEVDKGGHFAAWEQPELFAAEIRAAFRPLREKK
B3: Novosphingobium aromaticivorans epoxide hydrolase nEEH (Novo), SEQ ID NO: 30 (Novosphingobium aromaticivorans DSM 12444) (protein)
chain: MNVAPFVVDIPRGEIEDLHRRIDMTRWPEKETVDDWSQGTPLGALQDFVSYWRGGYDWYACQRMLNDWGMFETEIDGVAIRFLHVRSAQADARPLLLTHGWPGSILEFRRCIAPLTRPEEHGGTAADAFHLVIPCLPGYGFSGKPTRKGWSVQKIAQAWGELMKRLGYESWLAQGGDWGSAVTTAIGALKVEGCAGIHLNMPIARPLPEDLAAPTPEELRALTALQHYQDWDSGYSKEQATRPQTVGYGLVDSPVGLAGWIYEKMWAWTDNEGAPEDALSRDDMLDNIMLYWLTAAGASSARLYWESFASFGPSQIDIPAAASAFPKEIIPAPRKWFERNCSKLVYWGELEKGGHFAAWEQPEAFVKELRAAFSLMC

How the values were obtained:
[1] = Enantioselective hydrolyzing activity of purified EHases toward SO; format: biochemical; conditions: purified enzyme
Description: (§1) Kinetic parameters of the rEEH1, rEEH2, rEEH3, sEEH, nEEH, and rEEH were determined by a GC analysis using (R)- or (S)- styrene oxide substrate. 100 ul of purified EHases were mixed with various concentrations of (R)- or (S)- styrene oxide in a 10 ml tube containing 1 ml of potassium phosphate buffer (100 mM, pH 8.0), and shake-incubated at 200 rpm and a temperature of 30° C. The extraction mixtures were extracted with 2 ml of hexane, and enantiomeric excess [ee; ee=100×(S−R)/(S+R)] toward enantiopure styrene oxide was analyzed with a chiraldex gamma-cyclodextrin trifluoroacetyl(G-TA) capillary GC column. Wherein, the FIG. 8 was diagramed with GC analysis for the hydrolyzing activities of enantioselective EHases (rEEH1, rEEH2, and rEEH3) toward racemic styrene oxide.
(§2) Kinetic parameters were estimated by non-linear regression analysis using a Sigma Plot program, and various substrates as depicted in FIG. 1 were also tested for the enantioselective hydrolyzing activity by rEEH1, rEEH2, rEEH3, sEEH, nEEH, and rEEH.

[2] = Optimum activity conditions of sEEH, nEEH and rEEH; format: biochemical
Description: After cloning the genes into pET-24a (+) expression vector, the vector was introduced into BL21-CondonPlus(DE3)-RP (Novagen), and then separated by SDS-PAGE. […] Also, the optimum activities of sEEH, nEEH, and rEEH occurred at neutral pH and mesophilic conditions (30 to 40° C.).

[3] = substrate: c1ccc([C@@H]2CO2)cc1; assay: Kinetic parameters of purified sEEH by GC analysis with (R)- or (S)-styrene oxide; format: biochemical, Sphingopyxis alaskensis; conditions: other: 100 mM potassium phosphate pH 8.0, 30° C.
Description: as §1, §2

[4] = substrate: c1ccc([C@H]2CO2)cc1; assay: as above; format: biochemical, Sphingopyxis alaskensis; conditions: other: 100 mM potassium phosphate pH 8.0, 30° C.
Description: as §1, §2

[5] = substrate: c1ccc([C@@H]2CO2)cc1; assay: Kinetic parameters of purified nEEH by GC analysis with (R)- or (S)-styrene oxide; format: biochemical, Novosphingobium aromaticivorans; conditions: other: 100 mM potassium phosphate pH 8.0, 30° C.
Description: as §1, §2

[6] = substrate: c1ccc([C@H]2CO2)cc1; assay: as above; format: biochemical, Novosphingobium aromaticivorans; conditions: other: 100 mM potassium phosphate pH 8.0, 30° C.
Description: as §1, §2

Row | Molecule | enantiomer preference in hydrolysis of styrene oxide, in words [1] | optimum pH [2] | Km [3] [mM] | Vmax [3] [µmol/min/mg] | kcat [3] [s⁻¹] | kcat/Km [3] [M⁻¹ s⁻¹] | Km [4] [mM] | Vmax [4] [µmol/min/mg] | kcat [4] [s⁻¹] | kcat/Km [4] [M⁻¹ s⁻¹] | Km [5] [mM] | Vmax [5] [µmol/min/mg] | kcat [5] [s⁻¹] | kcat/Km [5] [M⁻¹ s⁻¹] | Km [6] [mM] | Vmax [6] [µmol/min/mg] | kcat [6] [s⁻¹] | kcat/Km [6] [M⁻¹ s⁻¹]
1 | B1 | not enantioselective | neutral pH | – | – | – | – | – | – | – | – | – | – | – | – | – | – | – | –
2 | B2 | – | – | 4 ± 0.3 | 8.9 | 7.42 | 1860 | 5.25 ± 0.3 | 12.1 | 10.1 | 1920 | – | – | – | – | – | – | – | –
3 | B3 | not enantioselective | neutral pH | – | – | – | – | – | – | – | – | 6 ± 0.3 | 40 | 27.8 | 4630 | 4 ± 0.3 | 18.7 | 13 | 3240
